Measured values published in the supplement of paper PMC12042874.
± gives the uncertainty stated by the source.

Experiment: amyloid nucleation score (Sup35N fusion, yeast selection) (log enrichment); library NNK1; higher = more nucleation; inactive = no reads after selection
In short: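 Using DiMSum, nucleation scores were taken as the log enrichment of output over input reads, centred on the mode score of non-aggregating sequences. The input and output reads came from Illumina sequencing of plasmid inserts, with sequences under 100 input reads excluded. The yeast were psi-negative, expressed Sup35N fused to peptides of 20 random codons, were induced with 100 μM copper sulfate for 24 hours, and were grown 7 days at 30°C on medium lacking adenine and uracil.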

Row | Substance | amyloid nucleation score
1 | WCWNAAQLSMVYSDMNFVAV | 0.675 ± 1
2 | LMWDIWVSYGGAKMSDWSKG | -0.225 ± 0.31
3 | PSSTNMGRDGWLDCQVHTFE | -0.009 ± 0.28
4 | IMSCDERWN | 0.287 ± 0.23
5 | RFWVYGKGILMVLGAFFCL | 0.07 ± 0.56
6 | HNVFDNLHMDSDKRMANSV | 0.428 ± 0.4
7 | SYNDQSVAYCVLIAETVWYC | 7.742 ± 0.055
8 | SLVFQDRRYLTAFLGFVLWL | -0.476 ± 0.51
9 | SISRGWFMWEDNRISRFLLI | 0.266 ± 0.37
10 | ATGINTGMTSNYSVMEMWGF | 0.937 ± 0.48
11 | TVYSMPKVTKTYGGFPAKSH | 0.312 ± 0.34
12 | LWLNLILCFQWDPQRKC | 4.09 ± 0.11
13 | GRCSKYCGFASATCMNGGVS | 0.032 ± 0.32
14 | PFRVLWTCITG | -0.229 ± 1.4
15 | NVSGNEMISGAFGIDEIDGS | 0.189 ± 0.9
16 | WPPMQGLSLSSLSSINHPHT | 0.76 ± 1.1
17 | RNGSSMGPLSM | -0.258 ± 0.71
18 | FGIRVVSR | 0.842 ± 0.73
19 | TNLMSFY | -0.721 ± 1.1
20 | SAWCRSIM | 0.952 ± 0.27
21 | RRRFTIGASVCFRQCFYCQG | -0.491 ± 1.6
22 | KFFLRNGVAGTTVLLVQGLQ | inactive
23 | CNQMSFFTEALVNKLHLFFT | inactive
24 | YLLCFCR | 0.354 ± 0.27
25 | DLRAVNLNSYSLLDSFTCFF | 5.59 ± 0.06

Row | Substance | amyloid nucleation score
26 | YISEM | 0.544 ± 0.35
27 | DVTAPRLQIGLKVKHMKPFF | 0.423 ± 0.42
28 | FNWSRNHGF | 0.013 ± 0.76
29 | RCGVRLF | -1.31 ± 1.2
30 | TTSPGSNSRDPAGMMIT | 0.38 ± 0.32
31 | SQLFYAILSIHYWCVTFFRC | 0.642 ± 0.33
32 | FLTTEYDDWVSSAFINCCGD | -0.475 ± 0.41
33 | YMGGEWKD | 6.801 ± 0.06
34 | LNRVEYS | 6.843 ± 0.068
35 | GYHDGISMFSCVYSCYQSVS | 5.92 ± 0.061
36 | LSSYSTYPCSLTGVRKLNCR | -0.205 ± 0.56
37 | LYLHNHGVWAYFKWCWGVRG | -0.257 ± 0.53
38 | SWYVVG | -0.373 ± 0.97
39 | FGFLLHGDDDQEGIVTGRGG | 0.384 ± 0.76
40 | SGTAVSIVAWYTMTQLDHAG | -0.001 ± 0.37
41 | ITPGLVAPSPDTKCSACDIL | 0.074 ± 0.34
42 | CNVKCLRVARFDFVYRFFLP | inactive
43 | HISGLPVWLSCSWFWPKRLL | 0.08 ± 0.32
44 | LNNSGVTTICLAGRVTFCTD | 6.55 ± 0.075
45 | KVCFPY | -1.03 ± 0.4
46 | CMAHIYCWDICYNERWGFYI | 4.11 ± 0.052
47 | SGRLVSRGTKHNQSSRCE | -0.232 ± 0.9
48 | LHCFMWFFHIDN | 7.456 ± 0.057
49 | VMAGHFCYWCRCRVARQLSW | -0.69 ± 0.77
50 | CVWMVETRQWREGFKCMPER | 0.532 ± 0.97

Row | Substance | amyloid nucleation score
51 | TNDKCHSITVFSYREVDWTW | 0.445 ± 0.29
52 | NTHKLSGLI | 0.149 ± 0.41
53 | YNLYS | -0.626 ± 1.1
54 | AYAILMRKMVIHADLLARC | -0.006 ± 0.7
55 | AGGRFCLLKFLTRFASCRGE | 2.44 ± 0.24
56 | GAVDSYLQRLFGLFRWDTLK | -0.375 ± 0.64
57 | VLTKWGIWGGQWCTVLSRGR | 0.211 ± 0.37
58 | NTSEIPCCVIQEWFYCTFYL | 7.503 ± 0.044
59 | VCVSIGWFCCSGCCLAQRLW | 7.2 ± 0.065
60 | YKTYMFYCTSFQSGPCSRLI | -0.634 ± 0.35
61 | NFRSFYKQF | -0.451 ± 1.4
62 | LFGDLTNFQTFYT | inactive
63 | YNGLGIEETNWAARGS | -1.12 ± 1.1
64 | SIVKRNLNAFAGLSLYMIFG | -0.764 ± 0.54
65 | NFRGFLVTDPLSSS | -0.842 ± 0.42
66 | VRLVVQWEKVKDCLIVWD | 1.85 ± 0.12
67 | SHGKVVIFSPSHCAGFFSCS | 7.699 ± 0.061
68 | NFGLRRYSNARMGMDCGWLC | -0.011 ± 0.45
69 | VVNSSS | 0.537 ± 0.85
70 | VFLKHAPRGI | -0.077 ± 1.7
71 | LCFGYKLIAKECVCAGRTES | inactive
72 | FKIVKSCSMFST | 0.761 ± 0.24
73 | EGATWIFQYLAGGVG | -0.534 ± 0.34
74 | GAGRNSWRCCNLLFSEDMIG | 2.79 ± 0.088
75 | FYAVVFYYDTDSAARCRFC | 6.32 ± 0.075

Row | Substance | amyloid nucleation score
76 | LRLLFLNNSATCLVTHVGNQ | 1.38 ± 0.74
77 | TWSTGAMPML | -0.344 ± 0.84
78 | SVTEVFYGKSVFLTFVFGIF | 0.292 ± 0.31
79 | LDMTTTLLVSLESDG | 0.04 ± 0.73
80 | ETSVRMVFFVKRLTGYMNLR | -0.277 ± 0.33
81 | KAGRGICESYRSFHPRPVFA | 0.034 ± 0.4
82 | GGLSNSLSTAVQDW | -0.995 ± 0.61
83 | KMIPMTYASKVLKCRLFEVK | 1.14 ± 0.76
84 | FYRNTGFMW | -1.42 ± 2.7
85 | TMLMESTIRRRC | -0.021 ± 0.54
86 | LSTKRYDLHSTPRRPISPSR | 1.08 ± 0.41
87 | INNIVK | 0.602 ± 0.29
88 | TRLCFGFWAKIEWMRSVSGV | 0.082 ± 0.64
89 | RLSQLVLVVWTAQGC | -0.006 ± 0.63
90 | ASFHNVQIGAYNMCKMNKGC | 1.75 ± 0.34
91 | AKSKVLWESSVRQRS | -0.04 ± 0.62
92 | ARVTVNGFLWCYNLGIRLDF | -0.779 ± 1.6
93 | LKFMSPSLSTIDRDIK | 0.156 ± 0.27
94 | IFVFWTALSTSHNGWGVPVM | inactive
95 | LKICLIGTNCMSNV | -0.234 ± 0.78
96 | SKCNFVHSRLGIALQYETRL | 3.56 ± 0.1
97 | RMSCAHDDHPIYWSCT | -0.622 ± 0.98
98 | PPLVHSAHYVMKILKSCN | -1.5 ± 2.7
99 | QKVHANSMM | 0.973 ± 0.9
100 | CEWAAGRTWMKLGSSSTKTK | 3.87 ± 0.12

Row | Substance | amyloid nucleation score
101 | LRRVRMEWSVVMHGQSENPE | 1.2 ± 0.35
102 | NNCLWLLGPRFPCVIMLVPA | 2.18 ± 0.14
103 | HSLGTCRFFVIAHSLK | 0.583 ± 0.69
104 | ILVHSMGFLGKRYCGCMWGD | 3.41 ± 0.13
105 | NKAFGMIV | -0.103 ± 0.79
106 | LGGAWLSNEDMVGYKNLH | 1.44 ± 0.41
107 | LTQWPGEGKV | -0.303 ± 0.8
108 | YSLWFLRYSRNGSMRDLLRF | -0.447 ± 0.39
109 | VDHTSMWCGFLYTSCLGPDF | -0.758 ± 1.2
110 | SGHACTGR | 0.616 ± 0.4
111 | VYCCTYVQINVGVERSTEIR | 7.044 ± 0.05
112 | NDGPNSIIYFYMIFI | 4.58 ± 0.12
113 | AIYSPYRNLER | 0.233 ± 0.42
114 | RCTSSPFVVL | 0.668 ± 0.82
115 | MFRYNCRRAIQIVFMYLWTP | 0.779 ± 0.28
116 | RAGTLLPVLLDKVKRCSKLW | 0.222 ± 0.7
117 | STLSMTHVASAAVWRLVMPR | 1.41 ± 0.48
118 | ECDRCYSYGCVDHKAALG | 0.629 ± 0.72
119 | CSDRCTTYCLFSLSDRKRIL | -0.317 ± 0.25
120 | SVYSVAFR | 0.184 ± 0.78
121 | FTLSPLGCVYYDT | 0.712 ± 0.72
122 | LLFIAG | 0.386 ± 0.66
123 | VVWYLMVFWPCDSLSPMSRS | 0.559 ± 0.4
124 | SALLVMPRVAVSSTMVGKAT | 0.938 ± 0.45
125 | LMLTGRD | -0.462 ± 1.2

Row | Substance | amyloid nucleation score
126 | HDLTWVSTSESFFSLMGHAS | -0.28 ± 0.29
127 | RPNLDWFLRLGFSYKCDDRR | 4.56 ± 0.13
128 | FRDMYCARNIACSFLLVVAC | 1.1 ± 0.19
129 | YTWMSIEIY | 1.71 ± 0.4
130 | FHICDNRLDCSLIVVANSWK | 2.65 ± 0.18
131 | GGTGMVGRDANTSFIFWDIV | -0.099 ± 0.36
132 | CVKAD | -0.354 ± 0.54
133 | FNGRVDSARCPGVARARHLL | -0.846 ± 2.4
134 | CFMCTGAGCILNEMPRNLLG | 7.793 ± 0.071
135 | CPIWPVCWEVNHVPYLTKDI | 0.58 ± 0.79
136 | VRNDLNTH | 0.377 ± 0.19
137 | LQASLGNDPSSVRVSSRGNW | -0.468 ± 0.54
138 | LFVFPVESCMCMQLRVAQSK | 0.642 ± 0.62
139 | LIAVQWASMRQAWNIC | 0.616 ± 1.2
140 | GSRYLGTPFRDIMLHVAIRW | 1.08 ± 0.57
141 | NRYSYYFLLI | 3.16 ± 0.1
142 | PIFSYFALFLGLIKHCIMSQ | -0.238 ± 0.53
143 | LSPLDIPTRDLPIFLTFKDT | inactive
144 | LYRSGSPRTGWKLMSSSARR | 7.525 ± 0.07
145 | SGNGG | -0.158 ± 0.34
146 | PAQEA | 0.126 ± 0.45
147 | ARTRVTLSR | -0.072 ± 0.98
148 | KLLSGGVNTWRPTGTSRLEI | -0.053 ± 0.46
149 | MEICNCKDYFKAYRRFSHGS | 1.56 ± 0.27
150 | TCGSYV | 0.215 ± 0.42

Row | Substance | amyloid nucleation score
151 | FYCLSNKFFYIVCRNALQSS | -0.324 ± 0.35
152 | IGLRWYSFLLRMSGLSSTGA | -0.23 ± 0.24
153 | RSTKKFSPQDTPHSLHVKKG | 0.574 ± 0.42
154 | AWHTRPQTKTERPLRPVFRA | -0.733 ± 0.69
155 | RLRQTGVRLRSQEMFVGEVY | -0.378 ± 0.45
156 | RFVWVMSYGPSTYILHVWFV | 0.248 ± 0.39
157 | DPVYGLYGALFAMNPFMDYL | -0.427 ± 0.56
158 | YLIEFCPL | -0.225 ± 0.34
159 | NNNAMQVDVILMRFWVKVAV | 0.492 ± 0.89
160 | FRFELYRLPVSDSLMKDLQL | 0.998 ± 0.58
161 | KRERGKISIEEAMRQAGQRS | 0.578 ± 0.7
162 | AGIIVWN | -0.087 ± 0.31
163 | FHDLTQSCVCGSM | 0.717 ± 0.49
164 | NNPLLIPAYPTRNQKVKLIK | 0.108 ± 0.39
165 | MVSLDWTSQLGR | 2.18 ± 0.54
166 | TPAASIRLTRLPEGLIFI | 0.47 ± 0.95
167 | FWHGSCSLDNDFHS | -0.442 ± 0.51
168 | TYLRKIKKRFPGSRYPSLMG | 0.15 ± 0.46
169 | ATTALAMGGSNDTMGYGVRC | 0.006 ± 0.4
170 | CGGTNILWVRSLPHGLDVHD | -0.204 ± 0.39
171 | FLKNEHSYTGWCFSTWPVRY | 1.95 ± 0.29
172 | AIVNMVLIHKERTVSVLIRA | -0.296 ± 0.58
173 | LFVDPL | 1.06 ± 0.88
174 | KSAYVANRGCRRLYGVHNKM | -0.647 ± 0.71
